Experimental data reported in publication PMC4783868 (Nature, 2015).

Target: T1, PB2 subunit of the influenza C/Johannesburg/1/1966 virus polymerase (FluPolC) (influenza C/Johannesburg/1/1966 virus, UniProt Q9IMP3)
T1 sequence: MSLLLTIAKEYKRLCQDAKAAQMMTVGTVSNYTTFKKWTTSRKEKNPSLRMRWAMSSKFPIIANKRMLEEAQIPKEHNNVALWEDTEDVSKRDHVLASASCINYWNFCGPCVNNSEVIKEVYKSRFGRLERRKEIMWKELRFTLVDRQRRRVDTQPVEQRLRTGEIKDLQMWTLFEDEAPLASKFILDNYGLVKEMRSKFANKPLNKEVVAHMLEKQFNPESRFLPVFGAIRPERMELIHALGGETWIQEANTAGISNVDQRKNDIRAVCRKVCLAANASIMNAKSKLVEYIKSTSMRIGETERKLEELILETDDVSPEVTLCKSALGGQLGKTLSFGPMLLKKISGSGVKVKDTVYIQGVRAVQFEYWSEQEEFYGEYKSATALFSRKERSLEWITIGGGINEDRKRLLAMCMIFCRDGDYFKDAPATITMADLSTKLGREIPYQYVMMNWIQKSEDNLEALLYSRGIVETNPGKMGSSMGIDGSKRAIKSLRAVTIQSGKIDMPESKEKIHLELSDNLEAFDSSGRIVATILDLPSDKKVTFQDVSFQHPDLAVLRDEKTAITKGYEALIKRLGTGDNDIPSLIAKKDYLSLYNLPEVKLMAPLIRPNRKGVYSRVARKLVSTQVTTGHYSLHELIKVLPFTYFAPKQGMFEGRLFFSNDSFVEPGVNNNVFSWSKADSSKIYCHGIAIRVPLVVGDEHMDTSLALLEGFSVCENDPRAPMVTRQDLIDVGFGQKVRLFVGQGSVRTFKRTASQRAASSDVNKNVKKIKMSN
Experiment: crystal structure

B1: PB1 subunit of the influenza C/Johannesburg/1/1966 virus polymerase (FluPolC) (natural protein)
chain: MEINPYLMFLNNDVTSLISTTYPYTGPPPMSHGSSTKYTLETIKRTYDYSRTSVEKTSKVFNIPRRKFCNCLEDKDELVKPTGNVDISSLLGLAEMMEKRMGEGFFKHCVMEAETEILKMHFSRLTEGRQTYDWTSERNMPAATALQLTVDAIKETEGPFKGTTMLEYCNKMIEMLDWKEIKFKKVKTVVRREKDKRSGKEIKTKVPVMGIDSIKHDEFLIRALTINTMAKDGERGKLQRRAIATPGMIVRPFSKIVETVAQKICEKLKESGLPVGGNEKKAKLKTTVTSLNARMNSDQFAVNITGDNSKWNECQQPEAYLALLAYITKDSSDLMKDLCSVAPVLFCNKFVKLGQGIRLSNKRKTKEVIIKAEKMGKYKNLMREEYKNLFEPLEKYIQKDVCFLPGGMLMGMFNMLSTVLGVSTLCYMDEELKAKGCFWTGLQSSDDFVLFAVASNWSNIHWTIRRFNAVCKLIGINMSLEKSYGSLPELFEFTSMFFDGEFVSNLAMELPAFTTAGVNEGVDFTAAMSIIKTNMINNSLSPSTALMALRICLQEFRATYRVHPWDSRVKGGRMKIINEFIKTIENKDGLLIADGGKLMNNISTLHIPEEVLKFEKMDEQYRNRVFNPKNPFTNFDKTIDIFRAHGPIRVEENEAVVSTHSFRTRANRTLLNTDMRAMMAEEKRYQMVCDMFKSVFESADINPPIGAMSIGEAIEEKLLERAKMKRDIGAIEDSEYEEIKDIIRDAKKARLESR
- binding result: binds

B2: P3 subunit of the influenza C/Johannesburg/1/1966 virus polymerase (FluPolC) (natural protein)
chain: MSKTFAEIAEAFLEPEAVRIAKEAVEEYGDHERKIIQIGIHFQVCCMFCDEYLSTNGSDRFVLIEGRKRGTAVSLQNELCKSYDLEPLPFLCDIFDREEKQFVEIGITRKADDSYFQSKFGKLGNSCKIFVFSYDGRLDKNCEGPMEEQKLRIFSFLATAADFLRKENMFNEIFLPDNEETIIEMKKGKTFLELRDESVPLPFQTYEQMKDYCEKFKGNPRELASKVSQMQSNIKLPIKHYEQNKFRQIRLPKGPMAPYTHKFLMEEAWMFTKISDPERSRAGEILIDFFKKGNLSAIRPKDKPLQGKYPIHYKNLWNQIKAAIADRTMVINENDHSEFLGGIGRASKKIPEISLTQDVITTEGLKQSENKLPEPRSFPRWFNAEWMWAIKDSDLTGWVPMAEYPPADNELEDYAEHLNKTMEGVLQGTNCAREMGKCILTVGALMTECRLFPGKIKVVPIYARSKERKSMQEGLPVPSEMDCLFGICVKSKSHLNKDDGMYTIITFEFSIREPNLEKHQKYTVFEAGHTTVRMKKGESVIGREVPLYLYCRTTALSKIKNDWLSKARRCFITTMDTVETICLRESAKAEENLVEKTLNEKQMWIGKKNGELIAQPLREALRVQLVQQFYFCIYNDSQLEGFCNEQKKILMALEGDKKNKSSFGFNPEGLLEKIEECLINNPMCLFMAQRLNELVIEASKRGAKFFKTD
- binding result: binds
